Reference: article doi:10.1101/2023.02.06.527249
pKd: −log10 of the molar value.

Assays:
[1] = target: HLA-C*05:01 (1-278) refolded with β2-microglobulin (1-99) and P2-AW (…); assay: SPR
[2] = target: HLA-C*05:01 (1-278) refolded with β2-microglobulin (1-99) and P2-IP (…); assay: SPR
[3] = target: HLA-C*05:01 (1-278) refolded with β2-microglobulin (1-99) and P2-AV (…); assay: SPR
[4] = target: HLA-C*16:02 on cells loaded with P9 with the Q8S substitution (…) (human | human (endogenous in 721.221)); assay: flow cytometry on cells
[5] = target: HLA-C*08:02 on cells loaded with P2-MW with p6 Pro (human | human (endogenous in 721.221)); assay: flow cytometry on cells
[6] = target: HLA-C*05:01 on cells loaded with P2-MW with p6 Asn (human | human (endogenous in 721.221)); assay: flow cytometry on cells
[7] = target: HLA-C*08:02 on cells loaded with P2-MW with p6 Leu (human | human (endogenous in 721.221)); assay: flow cytometry on cells
[8] = target: HLA-C*08:02 on cells loaded with P2-MW with p6 Lys (human | human (endogenous in 721.221)); assay: flow cytometry on cells
[9] = target: HLA-C*08:02 on cells loaded with P2-MW with p6 Ile (human | human (endogenous in 721.221)); assay: flow cytometry on cells
[10] = target: HLA-C*08:02 on cells loaded with P2-MW with p6 Val (human | human (endogenous in 721.221)); assay: flow cytometry on cells

Substance	pKd [1]	pKd [2]	pKd [3]	further results
2DL1 (1-224), recombinant, refolded (from UniProt P43626 22-245) (domain or fragment)	5.96	6.36	6.00	–
2DS1 (3-200), recombinant, refolded (domain or fragment)	5.72	5.64	5.59	–
2DS4 (3-200), recombinant, refolded (domain or fragment)	5.70	–	–	–
KIR2DS1*001-Fc (from UniProt Q14954 22-245) (Fc fusion)	–	–	–	fold change of binding against unmodified P9 [4]: 5 fold
KIR2DS4*001 KIR-Ig (KIR-Fc) fusion protein (from UniProt P43632 22-245) (Fc fusion)	–	–	–	percent of the binding with p6 Gly (P2-MW) [5]: > 50%; percent of the binding with p6 Gly (P2-MW) [6]: > 25%; percent of the binding with p6 Gly (P2-MW) [7]: > 50%; percent of the binding with p6 Gly (P2-MW) [8]: > 50%; percent of the binding with p6 Gly (P2-MW) [9]: > 50%; percent of the binding with p6 Gly (P2-MW) [10]: > 50%
